How the values were obtained:
[1] = tested on: WT C57BL/6J mice subjected to retinal ischemia-reperfusion (IR) injury; assay: Retinal ischemia-reperfusion (IR) injury: neuronal survival by NeuN labeling of retinal flat-mounts; type: in vivo, mouse; conditions: 25 mg/kg i.p. at 3 hours and day 4, 7 days post-injury; vehicle group 40%
Procedure: (§1) Mouse retinal ischemia-reperfusion (IR) injury and traumatic optic neuropathy (TON) models: All experiments were performed in accordance with the ARVO Statement for the Use of Animals in Ophthalmic and Vision Research and were approved by the institutional animal care and use committee (Animal Welfare Assurance no. D16-00197). Wild-type (WT) C57BL/6J mice (10-12 weeks old) were anesthetized using ketamine/xylazine mixture then subjected to retinal ischemia-reperfusion (IR) injury or optic nerve crush (ONC) to model traumatic optic neuropathy (TON) as described in Shosha, et al., Cell death & disease, 7:e2483-e (2016) and Xu, et al., Frontiers in Neuroscience, 12:970 (2018). […]
(§2) Evaluation of retinal neurodegeneration: Retina flat-mounts and explants were immunolabeled for the neuronal marker, NeuN (Millipore), as previously described in Shosha, et al., Cell death & disease, 7:e2483-e (2016). Images were collected and analyzed in a blinded fashion using a semi-automated method. […] NeuN-positive cells were quantified using ImageJ software ‘Batch processing’ function. […] The macro was validated every time it was used to make sure it is compatible with the set of images being analyzed. […]

[2] = Optic nerve crush (ONC) model: PEG-A1 penetration (Western blot, flat-mount immunolabeling); type: in vivo, mouse; conditions: Western blot at 24 hours, flat-mount immunolabeling at 7 days
Procedure: Mouse retinal ischemia-reperfusion (IR) injury and traumatic optic neuropathy (TON) models: All experiments were performed in accordance with the ARVO Statement for the Use of Animals in Ophthalmic and Vision Research and were approved by the institutional animal care and use committee (Animal Welfare Assurance no. D16-00197). Wild-type (WT) C57BL/6J mice (10-12 weeks old) were anesthetized using ketamine/xylazine mixture then subjected to retinal ischemia-reperfusion (IR) injury or optic nerve crush (ONC) to model traumatic optic neuropathy (TON) as described in Shosha, et al., Cell death & disease, 7:e2483-e (2016) and Xu, et al., Frontiers in Neuroscience, 12:970 (2018). Mice were sacrificed at 24 hours or 7 days after by deep anesthesia followed by trans-cardial perfusion with PBS or thoracotomy and eyeballs were collected and fixed in 4% PFA for immunolabeling or retinas were extracted without fixation and homogenized in Radioimmunoprecipitation Assay (RIPA) lysis buffer for Western blotting.
Western blotting: Western blotting on retina or brain was conducted as described in Fouda, A Y, et al., Cell death & Disease, 9:1001 (2018). Membranes were probed with anti-PEG (RevMAb Biosciences, 1:1000) and anti-albumin (Bethyl Laboratories, 1:5000). Uncropped blots are included in FIG. 22. […]

[3] = tested on: mice subjected to optic nerve crush (ONC); assay: Optic nerve crush (ONC) model of traumatic optic neuropathy: neuroprotection by NeuN labeling; type: in vivo, mouse; conditions: 7 days post-ONC, treated at 3 hours and day 4; vehicle group 62%
Procedure: as §1, §2

[4] = tested on: C57BL/6J mice subjected to middle cerebral artery occlusion (MCAO); assay: MCAO stroke model: infarct size (TTC) and Bederson score; type: in vivo, mouse; conditions: 60 minutes MCAO, 24 hours
Procedure: MCAO model: C57BL/6J mice (12-16 week-old male, 25-30 g) were subjected to middle cerebral artery occlusion (MCAO) using the intraluminal filament technique (Docol 602145) for 60-minutes followed by reperfusion as described in Eldahshan, et al., American Journal of Physiology Heart and Circulatory Physiology, 316:H1192-h201 (2019). […] A heating pad was used to maintain body temperature at 37° C. […] Sham surgery involved all the regular surgery steps except the filament insertion. Mice were deeply anesthetized at 24 hours and sacrificed by trans-cardial perfusion with PBS then brains were collected and sectioned for triphenyl tetrazolium chloride (TTC) staining or homogenized in RIPA lysis buffer for western blotting. […]
The stroke experiment involved behavioral scoring and manual quantification of the infarct size, and was conducted in a blinded fashion following the STAIR criteria. […]
Infarct size analysis: Brain infarct size was determined based on TTC staining of brain sections as described in Eldahshan, et al., American Journal of Physiology Heart and Circulatory Physiology, 316:H1192-h201 (2019). Images of TTC-stained sections were analyzed in a blinded fashion using ImageJ software [National Institutes of Health (NIH)], and the infarct size was calculated with edema correction using the following formula: 100×[nonstroked−(stroked−infarct)]/nonstroked. […]

[5] = Pharmacokinetic profile of PEG-A1 in mouse vitreous by arginase activity after intravitreal administration; type: in vivo; conditions: adult mice, intravitreal 6.8 ng in 1 μL
Text: Based on the results of the above studies showing detrimental effects of A1 hemizygous deletion on vascular repair in A1^+/− mice and the findings that increases in A1 expression accompany the beneficial effects of A2 deletion on the vascular injury, it was hypothesized that treatment with A1 could be useful in limiting OIR-induced retinal injury. To test this, a PEG-A1 was used. […] Adult mice were used in this experiment to get higher vitreous yield for ease of processing.

[6] = MCAO stroke model: PEG-A1 penetration into the brain (Western blot); type: in vivo, mouse; conditions: 60 minutes MCAO, 24 hours after stroke, perfused
Procedure: Western blotting: Western blotting on retina or brain was conducted as described in Fouda, A Y, et al., Cell death & Disease, 9:1001 (2018). Membranes were probed with anti-PEG (RevMAb Biosciences, 1:1000) and anti-albumin (Bethyl Laboratories, 1:5000). Uncropped blots are included in FIG. 22.
MCAO model: C57BL/6J mice (12-16 week-old male, 25-30 g) were subjected to middle cerebral artery occlusion (MCAO) using the intraluminal filament technique (Docol 602145) for 60-minutes followed by reperfusion as described in Eldahshan, et al., American Journal of Physiology Heart and Circulatory Physiology, 316:H1192-h201 (2019). […] A heating pad was used to maintain body temperature at 37° C. […] Sham surgery involved all the regular surgery steps except the filament insertion. Mice were deeply anesthetized at 24 hours and sacrificed by trans-cardial perfusion with PBS then brains were collected and sectioned for triphenyl tetrazolium chloride (TTC) staining or homogenized in RIPA lysis buffer for western blotting.
PEG-A1 treatment in acute retinal and brain injury mouse models: A pharmaceutical grade of PEG-A1 was provided as a kind gift from Bio-Cancer Treatment International Limited (BCT, Hong Kong). […] Methoxy polyethylene glycol propionic acid (MW 5,000—Sigma, Catalog number 88908-1G-F) was used as vehicle control. […]

B1: PEG-A1: recombinant human arginase (rhArg) covalently attached to methoxy polyethylene glycol (mPEG-SPA; MW 5,000) via succinamide propionic acid (SPA) linker (protein, UniProt P05089 1-322, looked up)
Arginase-1: MSAKSRTIGIIGAPFSKGQPRGGVEEGPTVLRKAGLLEKLKEQECDVKDYGDLPFADIPNDSPFQIVKNPRSVGKASEQLAGKVAEVKKNGRISLVLGGDHSLAIGSISGHARVHPDLGVIWVDAHTDINTPLTTTSGNLHGQPVSFLLKELKGKIPDVPGFSWVTPCISAKDIVYIGLRDVDPGEHYILKTLGIKYFSMTEVDRLGIGKVMEETLSYLLGRKKRPIHLSFDVDGLDPSFTPATGTPVVGGLTYREGLYITEEIYKTGLLSGLDIMEVNPSLGKTPEEVTRTVNTAVAITLACFGLAREGNHKPIDYLNPPK
modifications: mPEG-SPA 5 kDa conjugate
notes: recombinant human arginase (rhArg) covalently attached to methoxy polyethylene glycol (mPEG-SPA; MW 5,000) via succinamide propionic acid (SPA) linker
Q: Which results are given for B1?
A: neuronal survival after retinal IR (NeuN, % of sham retina) [1]: 62%; penetration into brain or sham contralateral retina/optic nerve after ONC [2]: not into the brain or sham contralateral retina/optic nerve; penetration into retina/optic nerve tissue after ONC [2]: effective penetration; neuroprotection after ONC (NeuN labeling and quantification) [3]: 78%; Bederson score [4]: trend towards improved Bederson score that did not reach statistical significance; infarct size (TTC, percent of contralesional hemisphere) ([4]; vehicle 41%): 34%; vitreous arginase activity ([5]; day 3 post injection): three-fold; vitreous arginase activity ([5]; day 6): returned to baseline; vitreous arginase activity as compared to vehicle treatment ([5]; immediately after administration): about six-fold increase; anti-PEG immunoreactivity in stroked brains (Western blot, also anti-A1) [6]: strong band
